In patent US12331106B2, “Anti-angiopoietin-2 antibodies that induce Tie2 activation” (Institute for Basic Science, priority 2018, dated 2025):
Where a chain is given by its changes, count along the chain named.

T1: hAng2 (Homo sapiens, UniProt O15123)
T1 sequence (O15123 19-496): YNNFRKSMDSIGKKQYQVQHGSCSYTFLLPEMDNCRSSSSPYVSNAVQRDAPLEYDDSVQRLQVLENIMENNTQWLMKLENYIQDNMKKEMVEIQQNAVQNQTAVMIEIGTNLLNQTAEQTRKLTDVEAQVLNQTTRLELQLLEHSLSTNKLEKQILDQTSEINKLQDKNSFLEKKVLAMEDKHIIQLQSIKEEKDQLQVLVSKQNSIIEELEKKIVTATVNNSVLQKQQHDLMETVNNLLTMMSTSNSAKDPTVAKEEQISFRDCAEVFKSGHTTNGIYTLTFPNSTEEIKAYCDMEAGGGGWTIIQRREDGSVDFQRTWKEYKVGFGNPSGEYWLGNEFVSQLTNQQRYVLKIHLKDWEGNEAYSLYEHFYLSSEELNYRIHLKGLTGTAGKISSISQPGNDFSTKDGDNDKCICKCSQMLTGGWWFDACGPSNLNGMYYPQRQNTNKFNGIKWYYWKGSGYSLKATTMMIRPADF

B1: 2C8H11G4: human IgG4 class antibody of 2C8H11 (antibody, V domains shown)
VH: QVQLVQSGAEVKKPGASVKVSCKASGYTFTSYWMHWVRQAPGQGLEWMGMIDPSDSETRLNQKFKDRVTMTRDTSTSTVYMELSSLRSEDTAVYYCARRFYYGSDWYFDVWGQGTLVTVSS
VL: DIQLTQSPSFLSASVGDRVTITCKASQDVGTAVAWYQQKPGKAPKLLIYWASTRHTGVPSRFSGSGSGTEFTLTISSLQPEDFATYYCQQYSSYPLTFGQGTKVEIK
B2: 2C8H13: humanized anti-Ang2 antibody from mouse 2C8; VH SEQ ID NO: 95, VL SEQ ID NO: 96 (antibody, V domains shown)
VH: B1 VH
VL: B1 VL with T20S, S60D, T85D, Y87F
modifications: VH; VL
B3: 2C8H23: humanized anti-Ang2 antibody from mouse 2C8; VH SEQ ID NO: 99, VL SEQ ID NO: 100 (antibody, V domains shown)
VH: B1 VH with T28S, M48I
VL: B1 VL with T20S, S60D, T85D, Y87F
modifications: VH; VL
B4: 2C8H31: humanized anti-Ang2 antibody from mouse 2C8; VH SEQ ID NO: 63, VL SEQ ID NO: 64 (antibody, V domains shown)
VH: B1 VH with T28S, M48I, R67K, V68A, T69S
VL: B1 VL
modifications: VH; VL
B5: 2C8H12: humanized anti-Ang2 antibody from mouse 2C8; VH SEQ ID NO: 75, VL SEQ ID NO: 76 (antibody, V domains shown)
VH: B1 VH
VL: B1 VL with T20S, S60D
modifications: VH; VL
B6: 2C8H53: humanized anti-Ang2 antibody from mouse 2C8; VH SEQ ID NO: 111, VL SEQ ID NO: 112 (antibody, V domains shown)
VH: B1 VH with T28S, R38K, M48I, R67K, V68A, T69S, M70L, R72V
VL: B1 VL with T20S, S60D, T85D, Y87F
modifications: VH; VL
B7: 2C8H41: humanized anti-Ang2 antibody from mouse 2C8; VH SEQ ID NO: 67, VL SEQ ID NO: 68 (antibody, V domains shown)
VH: B1 VH with T28S, R38K, M48I, R67K, V68A, T69S
VL: B1 VL
modifications: VH; VL
B8: 2C8H33: humanized anti-Ang2 antibody from mouse 2C8; VH SEQ ID NO: 103, VL SEQ ID NO: 104 (antibody, V domains shown)
VH: B1 VH with T28S, M48I, R67K, V68A, T69S
VL: B1 VL with T20S, S60D, T85D, Y87F
modifications: VH; VL
B9: 2C8H52: humanized anti-Ang2 antibody from mouse 2C8; VH SEQ ID NO: 91, VL SEQ ID NO: 92 (antibody, V domains shown)
VH: B1 VH with T28S, R38K, M48I, R67K, V68A, T69S, M70L, R72V
VL: B1 VL with T20S, S60D
modifications: VH; VL
B10: 2C8H42: humanized anti-Ang2 antibody from mouse 2C8; VH SEQ ID NO: 87, VL SEQ ID NO: 88 (antibody, V domains shown)
VH: B1 VH with T28S, R38K, M48I, R67K, V68A, T69S
VL: B1 VL with T20S, S60D
modifications: VH; VL
B11: 2C8H22: humanized anti-Ang2 antibody from mouse 2C8; VH SEQ ID NO: 79, VL SEQ ID NO: 80 (antibody, V domains shown)
VH: B1 VH with T28S, M48I
VL: B1 VL with T20S, S60D
modifications: VH; VL
B12: 2C8H32: humanized anti-Ang2 antibody from mouse 2C8; VH SEQ ID NO: 83, VL SEQ ID NO: 84 (antibody, V domains shown)
VH: B1 VH with T28S, M48I, R67K, V68A, T69S
VL: B1 VL with T20S, S60D
modifications: VH; VL
B13: 2C8H21: humanized anti-Ang2 antibody from mouse 2C8; VH SEQ ID NO: 59, VL SEQ ID NO: 60 (antibody, V domains shown)
VH: B1 VH with T28S, M48I
VL: B1 VL
modifications: VH; VL
B14: 2C8H43: humanized anti-Ang2 antibody from mouse 2C8; VH SEQ ID NO: 107, VL SEQ ID NO: 108 (antibody, V domains shown)
VH: B1 VH with T28S, R38K, M48I, R67K, V68A, T69S
VL: B1 VL with T20S, S60D, T85D, Y87F
modifications: VH; VL
B15: 2C8H51: humanized anti-Ang2 antibody from mouse 2C8; VH SEQ ID NO: 71, VL SEQ ID NO: 72 (antibody, V domains shown)
VH: B1 VH with T28S, R38K, M48I, R67K, V68A, T69S, M70L, R72V
VL: B1 VL
modifications: VH; VL
B16: 4B9H11G4: human IgG4 class antibody of 4B9H11 (antibody, V domains shown)
VH: QVQLVESGGGLVKPGGSLRLSCAASGFTFSDYYMYWIRQAPGKGLEWVSTISVGGSFTYYPDSVKGRFTISRDNAKNSLYLQMNSLRAEDTAVYYCARDWGLRPWFVYWGQGTLVTVSS
VL: B1 VL with L4M, F10S, G30S, E70D, Y91H, S92Y, Y94T, L96P

Biological target: T1, hAng2
Experiment: OCTET affinity of humanized anti-Ang2 antibodies against hAng2
Assay type: binding
Conditions: for affinities to hAng2 antigen: statement in words
Method: The affinity of humanized anti-Ang2 antibody against hAng2 was measured using OCTET® system (ForteBio). Specifically, buffer and samples were measured in total 200 μl/well using Black 96-well plates (96 well F-type black plates, Greiner). The biosensor used for affinity measurements was hydrated for 10 min before measurement with AR2G tip (ForteBio OCTET®). After the hydration, humanized anti-Ang2 antibody was diluted in 10 mM sodium acetate, pH 6.0 buffer at a concentration of 10 μg/ml, fixed on AR2G biosensor, and blocked with 1M ethanolamine. The recombinant hAng2 was diluted to 50, 25, 12.5, 6.25, 3.125, and 0 nM with 1× kinetic buffer, and subjected to association for 300 sec and dissociation for 900 sec. For affinity measurement (KD), association rate (K-on) and dissociation rate (K-off) were analyzed by binding curve (global) and fitted to 1:1 binding model using OCTET® data analysis v9.0.0.10 program.
The affinities of humanized 2C8 antibodies to hAng2 were in Table 15.

[1] = OCTET, antibody fixed on AR2G biosensor, hAng2 50-0 nM, 1:1 binding model

| Molecule | Kdis (IgG4 class antibodies) [s⁻¹] | Kon (IgG4 class antibodies) [M⁻¹ s⁻¹] | affinities to hAng2 antigen (IgG4 class antibodies) | Kdis [1] [s⁻¹] | Kon [1] [M⁻¹ s⁻¹] |
| --- | --- | --- | --- | --- | --- |
| B1 | 4.35e-06 | 415000 | subnanomolar high affinities | – | – |
| B2 | – | – | – | 2.77e-05 | 113000 |
| B3 | – | – | – | 2.28e-05 | 79500 |
| B4 | – | – | – | 2.21e-05 | 83200 |
| B5 | – | – | – | 1.33e-05 | 95200 |
| B6 | – | – | – | 3.11e-05 | 80900 |
| B7 | – | – | – | 1.67e-05 | 67000 |
| B8 | – | – | – | 3.99e-06 | 89600 |
| B9 | – | – | – | 1.99e-05 | 81900 |
| B10 | – | – | – | 3.07e-05 | 80600 |
| B11 | – | – | – | 6.84e-06 | 59600 |
| B12 | – | – | – | 1.49e-05 | 75700 |
| B13 | – | – | – | 1.5e-05 | 111000 |
| B14 | – | – | – | 2.65e-05 | 71100 |
| B15 | – | – | – | 9.61e-06 | 70200 |
| B16 | 3.46e-05 | 432000 | subnanomolar high affinities | – | – |
